# Measurements reported in IntAct's records for PubMed 20118266.
# B1: Flagellar biosynthesis protein FlhA (Salmonella typhimurium), P40729 (parent)
# chain: MANLVAMLRLPSNLKSTQWQILAGPILILLILSMMVLPLPAFILDLLFTFNIALSIMVLLVAMFTQRTLDFAAFPTILLFTTLLRLALNVASTRIILMEGHTGAAAAGKVVEAFGHFLVGGNFAIGIVVFIILVIINFMVITKGAGRIAEVGARFVLDGMPGKQMAIDADLNAGLIGEDEAKKRRSEVTQEADFYGSMDGASKFVRGDAIAGILIMVINVVGGLLVGVLQHGMSIGSAAESYTLLTIGDGLVAQIPALVISTAAGVIVTRVSTDQDVGEQMVGQLFSNPRVMLLAAAVLGLLGMVPGMPNLVFLLFTAALLGLAWWLRGREEKAPEEPQPVKMPENNSVVEATWNDVQLEDSLGMEVGYRLIPMVDFQQDGELLGRIRSIRKKFAQDMGFLPPVVHIRDNMDLQPARYRILMKGVEIGSGDAYPGRWLAINPGTAAGTLPGEKTVDPAFGLDAIWIESALKEQAQIQGFTVVEASTVVATHLNHLIGQFSAELFGRQEAQQLLDRVSQEMPKLTEDLVPGVVTLTTLHKVLQNLLAEKVPIRDMRTILETLAEHAPLQSDPHELTAVVRVALGRAITQQWFPGNEEVQVIGLDTALERLLLQALQGGGGLEPGLADRLLAQTQEALSRQEMLGAPPVLLVNHALRPLLSRFLRRSLPQLVVLSNLELSDNRHIRMTATIGGK
# partner: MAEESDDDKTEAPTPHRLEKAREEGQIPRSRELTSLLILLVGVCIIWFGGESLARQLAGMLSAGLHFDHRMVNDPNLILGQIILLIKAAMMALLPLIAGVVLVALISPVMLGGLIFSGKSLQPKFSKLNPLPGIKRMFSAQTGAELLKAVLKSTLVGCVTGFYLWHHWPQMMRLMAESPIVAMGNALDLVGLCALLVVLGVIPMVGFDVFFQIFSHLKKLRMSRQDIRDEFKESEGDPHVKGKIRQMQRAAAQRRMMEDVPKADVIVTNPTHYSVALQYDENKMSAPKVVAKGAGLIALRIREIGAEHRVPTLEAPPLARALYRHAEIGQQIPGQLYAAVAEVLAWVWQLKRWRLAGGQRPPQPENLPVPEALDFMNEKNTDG
# B2: Flagellar biosynthesis protein FlhA (Salmonella typhimurium), P40729 (parent)
# chain: B1 chain
# Variants of: B1
# Settings: with flhb_salty flhB
row,Variant,effect of a mutation on the interaction
1,G368C,increasing interaction strength

# Variants of: B2
# Settings: with flij_salty fliJ
row,Variant,effect of a mutation on the interaction
1,G368C,increasing interaction strength
